Measurements reported in patent publication US20130323786A1.

Tests used:
LINGO-1 (human) [1] = target: LINGO-1 (human) (UniProt Q96FE5); assay: FACS binding to LINGO-1; the value is listed under the plot without a name and agrees with the half-maximal point of the curve (x axis: Ab (ng/ml) log)
LINGO-1 (human) [2] = target: LINGO-1 (human) (UniProt Q96FE5); assay: ELISA
LINGO-1 (human) [3] = target: LINGO-1 (human) (UniProt Q96FE5); assay: affinity vs parent Li62 Fab; method not stated
LINGO-1 (human) [4] = target: LINGO-1 (human) (UniProt Q96FE5); assay: LINGO-1 ELISA

| Binder | EC50 (LINGO-1 (human) [1]) | ELISA Signal (LINGO-1 (human) [2]) | Fold-Improvement (LINGO-1 (human) [3]) | EC50 (LINGO-1 (human) [4]) |
| --- | --- | --- | --- | --- |
| N-terminally PEGylated Li113 (Fab, V domains shown, N-terminal 20 kDa methoxy-polyethyleneglycol propionaldehyde; chain carrying it not stated) VH: EVQLLESGGGLVQPGGSLRLSCAASGFTFSIYPMFWVRQAPGKGLEWVSWIGPSGGITKYADSVKGRFTISRDNSKNTLYLQMNSLRAEDTATYYCAREGTYDWYLDLWGRGTLVTVSS VL: DIQMTQSPSFLSASVGDSVAITCRASQDISRYLAWYQQRPGKAPKLLIYDASNLQTGVPSRFSGSGSGTDFTFTITSLQPEDFGTYYCQQYDTLHPSFGPGTTVDIK | 0.182 µg/mL | – | – | – |
| Li62 variant H08 Fab (VH CDR3 SEQ ID NO:34) (Fab, V domains shown) VH: EVQLLESGGGLVQPGGSLRLSCAASGFTFSIYPMFWVRQAPGKGLEWVSWIGPSGGITKYADSVKGRFTISRDNSKNTLYLQMNSLRAEDTATYYCAREGTYDWYFDLWGRGTLVTVSS VL: DIQMTQSPSFLSASVGDSVAITCRASQDISRYLAWYQQRPGKAPKLLIYDASNLQTGVPSRFSGSGSGTDFTFTITSLQPEDFGTYYCQQYDTLHPSFGPGTTVDIK | – | 3 | 9 fold | – |
| Li62 Fab (Fab, V domains shown) VH: EVQLLESGGGLVQPGGSLRLSCAASGFTFSIYPMFWVRQAPGKGLEWVSWIGPSGGITKYADSVKGRFTISRDNSKNTLYLQMNSLRAEDTATYYCAREGHNDWYFDLWGRGTLVTVSS VL: DIQMTQSPSFLSASVGDSVAITCRASQDISRYLAWYQQRPGKAPKLLIYDASNLQTGVPSRFSGSGSGTDFTFTITSLQPEDFGTYYCQQYDTLHPSFGPGTTVDIK | – | – | – | 0.26 nM |
| Li62 variant F10 Fab (VH CDR3 SEQ ID NO:26) (Fab, V domains shown) VH: EVQLLESGGGLVQPGGSLRLSCAASGFTFSIYPMFWVRQAPGKGLEWVSWIGPSGGITKYADSVKGRFTISRDNSKNTLYLQMNSLRAEDTATYYCARESHIDRYFDLWGRGTLVTVSS VL: DIQMTQSPSFLSASVGDSVAITCRASQDISRYLAWYQQRPGKAPKLLIYDASNLQTGVPSRFSGSGSGTDFTFTITSLQPEDFGTYYCQQYDTLHPSFGPGTTVDIK | – | 3 | 5 fold | – |
| Li62 variant D05 Fab (VH CDR3 SEQ ID NO:31) (Fab, V domains shown) VH: EVQLLESGGGLVQPGGSLRLSCAASGFTFSIYPMFWVRQAPGKGLEWVSWIGPSGGITKYADSVKGRFTISRDNSKNTLYLQMNSLRAEDTATYYCAREGYYDWYFELWGRGTLVTVSS VL: DIQMTQSPSFLSASVGDSVAITCRASQDISRYLAWYQQRPGKAPKLLIYDASNLQTGVPSRFSGSGSGTDFTFTITSLQPEDFGTYYCQQYDTLHPSFGPGTTVDIK | – | 3 | 10 fold | – |
| Li62 variant B01 Fab (VH CDR3 SEQ ID NO:20) (Fab, V domains shown) VH: EVQLLESGGGLVQPGGSLRLSCAASGFTFSIYPMFWVRQAPGKGLEWVSWIGPSGGITKYADSVKGRFTISRDNSKNTLYLQMNSLRAEDTATYYCAREGQYDWYFELWGRGTLVTVSS VL: DIQMTQSPSFLSASVGDSVAITCRASQDISRYLAWYQQRPGKAPKLLIYDASNLQTGVPSRFSGSGSGTDFTFTITSLQPEDFGTYYCQQYDTLHPSFGPGTTVDIK | – | 3 | 8 fold | – |
| Li62 variant D12 Fab (VH CDR3 SEQ ID NO:22) (Fab, V domains shown) VH: EVQLLESGGGLVQPGGSLRLSCAASGFTFSIYPMFWVRQAPGKGLEWVSWIGPSGGITKYADSVKGRFTISRDNSKNTLYLQMNSLRAEDTATYYCAREGHYDWYFDLWGRGTLVTVSS VL: DIQMTQSPSFLSASVGDSVAITCRASQDISRYLAWYQQRPGKAPKLLIYDASNLQTGVPSRFSGSGSGTDFTFTITSLQPEDFGTYYCQQYDTLHPSFGPGTTVDIK | – | 3 | 8 fold | – |
| Li62 variant F06 Fab (VH CDR3 SEQ ID NO:19) (Fab, V domains shown) VH: EVQLLESGGGLVQPGGSLRLSCAASGFTFSIYPMFWVRQAPGKGLEWVSWIGPSGGITKYADSVKGRFTISRDNSKNTLYLQMNSLRAEDTATYYCAREGDYDWYFDLWGRGTLVTVSS VL: DIQMTQSPSFLSASVGDSVAITCRASQDISRYLAWYQQRPGKAPKLLIYDASNLQTGVPSRFSGSGSGTDFTFTITSLQPEDFGTYYCQQYDTLHPSFGPGTTVDIK | – | 3 | 12 fold | – |
| Li62 variant D09 Fab (VH CDR3 SEQ ID NO:21) (Fab, V domains shown) VH: EVQLLESGGGLVQPGGSLRLSCAASGFTFSIYPMFWVRQAPGKGLEWVSWIGPSGGITKYADSVKGRFTISRDNSKNTLYLQMNSLRAEDTATYYCAREADIDWFFDLWGRGTLVTVSS VL: DIQMTQSPSFLSASVGDSVAITCRASQDISRYLAWYQQRPGKAPKLLIYDASNLQTGVPSRFSGSGSGTDFTFTITSLQPEDFGTYYCQQYDTLHPSFGPGTTVDIK | – | 3 | 15 fold | – |
| Li62 variant G08 Fab (VH CDR3 SEQ ID NO:27) (Fab, V domains shown) VH: EVQLLESGGGLVQPGGSLRLSCAASGFTFSIYPMFWVRQAPGKGLEWVSWIGPSGGITKYADSVKGRFTISRDNSKNTLYLQMNSLRAEDTATYYCAREGQYDWYFDVWGRGTLVTVSS VL: DIQMTQSPSFLSASVGDSVAITCRASQDISRYLAWYQQRPGKAPKLLIYDASNLQTGVPSRFSGSGSGTDFTFTITSLQPEDFGTYYCQQYDTLHPSFGPGTTVDIK | – | 3 | 10 fold | – |
| Li62 variant B12 Fab (VH CDR3 SEQ ID NO:18) (Fab, V domains shown) VH: EVQLLESGGGLVQPGGSLRLSCAASGFTFSIYPMFWVRQAPGKGLEWVSWIGPSGGITKYADSVKGRFTISRDNSKNTLYLQMNSLRAEDTATYYCAREGQYDWYFDVWGRGTLVTVSS VL: DIQMTQSPSFLSASVGDSVAITCRASQDISRYLAWYQQRPGKAPKLLIYDASNLQTGVPSRFSGSGSGTDFTFTITSLQPEDFGTYYCQQYDTLHPSFGPGTTVDIK | – | 3 | 8 fold | – |
| Li62 variant B06 Fab (VH CDR3 SEQ ID NO:17) (Fab, V domains shown) VH: EVQLLESGGGLVQPGGSLRLSCAASGFTFSIYPMFWVRQAPGKGLEWVSWIGPSGGITKYADSVKGRFTISRDNSKNTLYLQMNSLRAEDTATYYCAREGYYDWYFDQWGRGTLVTVSS VL: DIQMTQSPSFLSASVGDSVAITCRASQDISRYLAWYQQRPGKAPKLLIYDASNLQTGVPSRFSGSGSGTDFTFTITSLQPEDFGTYYCQQYDTLHPSFGPGTTVDIK | – | 3 | 8 fold | – |
| Li62 variant C10 Fab (VH CDR3 SEQ ID NO:29) (Fab, V domains shown) VH: EVQLLESGGGLVQPGGSLRLSCAASGFTFSIYPMFWVRQAPGKGLEWVSWIGPSGGITKYADSVKGRFTISRDNSKNTLYLQMNSLRAEDTATYYCAREGYYDWYFDLWGRGTLVTVSS VL: DIQMTQSPSFLSASVGDSVAITCRASQDISRYLAWYQQRPGKAPKLLIYDASNLQTGVPSRFSGSGSGTDFTFTITSLQPEDFGTYYCQQYDTLHPSFGPGTTVDIK | – | 3 | 11 fold | – |
| Li62 variant F01 Fab (VH CDR3 SEQ ID NO:23) (Fab, V domains shown) VH: EVQLLESGGGLVQPGGSLRLSCAASGFTFSIYPMFWVRQAPGKGLEWVSWIGPSGGITKYADSVKGRFTISRDNSKNTLYLQMNSLRAEDTATYYCAREGRYDWYFDPWGRGTLVTVSS VL: DIQMTQSPSFLSASVGDSVAITCRASQDISRYLAWYQQRPGKAPKLLIYDASNLQTGVPSRFSGSGSGTDFTFTITSLQPEDFGTYYCQQYDTLHPSFGPGTTVDIK | – | 3 | 9 fold | – |
| Li62 variant F06 Fab (VH CDR3 SEQ ID NO:25) (Fab, V domains shown) VH: EVQLLESGGGLVQPGGSLRLSCAASGFTFSIYPMFWVRQAPGKGLEWVSWIGPSGGITKYADSVKGRFTISRDNSKNTLYLQMNSLRAEDTATYYCAREGRYDWYFDLWGRGTLVTVSS VL: DIQMTQSPSFLSASVGDSVAITCRASQDISRYLAWYQQRPGKAPKLLIYDASNLQTGVPSRFSGSGSGTDFTFTITSLQPEDFGTYYCQQYDTLHPSFGPGTTVDIK | – | 3 | 8 fold | – |
| Li62 variant H08 Fab (VH CDR3 SEQ ID NO:28) (Fab, V domains shown) VH: EVQLLESGGGLVQPGGSLRLSCAASGFTFSIYPMFWVRQAPGKGLEWVSWIGPSGGITKYADSVKGRFTISRDNSKNTLYLQMNSLRAEDTATYYCAREGHYNGYFDLWGRGTLVTVSS VL: DIQMTQSPSFLSASVGDSVAITCRASQDISRYLAWYQQRPGKAPKLLIYDASNLQTGVPSRFSGSGSGTDFTFTITSLQPEDFGTYYCQQYDTLHPSFGPGTTVDIK | – | 0.5 | 6 fold | – |
| Li62 variant C10 Fab (VH CDR3 SEQ ID NO:33) (Fab, V domains shown) VH: EVQLLESGGGLVQPGGSLRLSCAASGFTFSIYPMFWVRQAPGKGLEWVSWIGPSGGITKYADSVKGRFTISRDNSKNTLYLQMNSLRAEDTATYYCAREGQFDWYFDLWGRGTLVTVSS VL: DIQMTQSPSFLSASVGDSVAITCRASQDISRYLAWYQQRPGKAPKLLIYDASNLQTGVPSRFSGSGSGTDFTFTITSLQPEDFGTYYCQQYDTLHPSFGPGTTVDIK | – | 3 | 9 fold | – |
| Li62 variant F02 Fab (VH CDR3 SEQ ID NO:24) (Fab, V domains shown) VH: EVQLLESGGGLVQPGGSLRLSCAASGFTFSIYPMFWVRQAPGKGLEWVSWIGPSGGITKYADSVKGRFTISRDNSKNTLYLQMNSLRAEDTATYYCAREGDYDWYFGLWGRGTLVTVSS VL: DIQMTQSPSFLSASVGDSVAITCRASQDISRYLAWYQQRPGKAPKLLIYDASNLQTGVPSRFSGSGSGTDFTFTITSLQPEDFGTYYCQQYDTLHPSFGPGTTVDIK | – | 3 | 8 fold | – |
| Li113 Fab (Li62 variant C02, VH CDR3 SEQ ID NO:30) (Fab, V domains shown) VH: EVQLLESGGGLVQPGGSLRLSCAASGFTFSIYPMFWVRQAPGKGLEWVSWIGPSGGITKYADSVKGRFTISRDNSKNTLYLQMNSLRAEDTATYYCAREGTYDWYLDLWGRGTLVTVSS VL: DIQMTQSPSFLSASVGDSVAITCRASQDISRYLAWYQQRPGKAPKLLIYDASNLQTGVPSRFSGSGSGTDFTFTITSLQPEDFGTYYCQQYDTLHPSFGPGTTVDIK | – | 3 | 8 fold | 0.09 nM |
| Li62 variant F02 Fab (VH CDR3 SEQ ID NO:32) (Fab, V domains shown) VH: EVQLLESGGGLVQPGGSLRLSCAASGFTFSIYPMFWVRQAPGKGLEWVSWIGPSGGITKYADSVKGRFTISRDNSKNTLYLQMNSLRAEDTATYYCAREGLIDWFFDQWGRGTLVTVSS VL: DIQMTQSPSFLSASVGDSVAITCRASQDISRYLAWYQQRPGKAPKLLIYDASNLQTGVPSRFSGSGSGTDFTFTITSLQPEDFGTYYCQQYDTLHPSFGPGTTVDIK | – | 3 | 16 fold | – |
